Consider four molecules from patent publication US20250019427A1 (BYOMASS, published 2025).

One assay addresses T1, Human BMP9 (human, UniProt Q9UK05 320-429).
T1 sequence (looked up): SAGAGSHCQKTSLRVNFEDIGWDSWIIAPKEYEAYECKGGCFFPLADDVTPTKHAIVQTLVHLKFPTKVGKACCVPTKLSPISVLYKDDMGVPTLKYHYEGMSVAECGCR
As to the kind of experiment: Octet BLI, IgG on tip, avid.

A further assay addresses GDF8 (UniProt O14793 267-375). Kind of assay: Octet BLI, IgG on tip, avid. A general note: BLI is a label-free optical method that tracks binding on a fibre tip over time.
The target in a further assay is T2, GDF11 (UniProt O95390 299-407).
T2 construct: Also the GDF-11 ligand of the ActRIIB/SMAD reporter assay
T2 sequence (O95390 299-407 limits assumed): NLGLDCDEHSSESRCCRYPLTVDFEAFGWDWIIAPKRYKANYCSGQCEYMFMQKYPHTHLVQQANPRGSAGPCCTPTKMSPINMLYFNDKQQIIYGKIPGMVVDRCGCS
As to the kind of experiment: Octet BLI, IgG on tip, avid.

The target of another assay is T3, Human Activin A Fc (human, UniProt P08476 311-426).
T3 sequence (looked up): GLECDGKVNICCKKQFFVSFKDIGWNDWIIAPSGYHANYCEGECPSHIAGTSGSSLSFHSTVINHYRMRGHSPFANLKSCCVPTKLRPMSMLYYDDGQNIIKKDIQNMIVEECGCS
As to the kind of experiment: Octet BLI, IgG on tip, avid.

The target of the next assay is T4, GDNF (UniProt P39905 78-211).
T4 sequence (looked up): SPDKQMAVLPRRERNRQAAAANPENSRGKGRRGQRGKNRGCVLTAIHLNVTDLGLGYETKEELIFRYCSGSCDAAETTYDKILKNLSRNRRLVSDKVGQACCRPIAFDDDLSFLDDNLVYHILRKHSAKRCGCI
As to the kind of experiment: Octet BLI, IgG on tip, avid.

A further assay concerns the target T5, Human BMP10 (human, UniProt O95393 317-424).
T5 sequence (looked up): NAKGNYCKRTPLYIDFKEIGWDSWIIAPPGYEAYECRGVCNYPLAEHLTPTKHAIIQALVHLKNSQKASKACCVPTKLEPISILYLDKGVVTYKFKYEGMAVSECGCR
As to the kind of experiment: Octet BLI, IgG on tip, avid.

A further assay has as its target T6, GDF10 (UniProt P55107 369-478).
T6 sequence (looked up): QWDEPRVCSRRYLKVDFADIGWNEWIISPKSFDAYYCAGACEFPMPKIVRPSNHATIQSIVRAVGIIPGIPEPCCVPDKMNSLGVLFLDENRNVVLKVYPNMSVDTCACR
Kind of assay: Octet BLI, IgG on tip, avid.

A further assay addresses T7, Human Activin B (human, UniProt P09529 293-407).
T7 construct: Also used for the Activin B ligand of the ActRIIB/SMAD reporter assay, where the species is not restated
T7 sequence (looked up): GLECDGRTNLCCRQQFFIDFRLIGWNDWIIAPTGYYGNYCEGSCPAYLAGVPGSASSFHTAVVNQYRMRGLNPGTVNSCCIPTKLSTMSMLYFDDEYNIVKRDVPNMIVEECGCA
Kind of assay: Octet BLI, IgG on tip, avid.

A further assay deals with T8, GDF15 (Homo sapiens (Human), UniProt Q99988 30-308).
T8 sequence: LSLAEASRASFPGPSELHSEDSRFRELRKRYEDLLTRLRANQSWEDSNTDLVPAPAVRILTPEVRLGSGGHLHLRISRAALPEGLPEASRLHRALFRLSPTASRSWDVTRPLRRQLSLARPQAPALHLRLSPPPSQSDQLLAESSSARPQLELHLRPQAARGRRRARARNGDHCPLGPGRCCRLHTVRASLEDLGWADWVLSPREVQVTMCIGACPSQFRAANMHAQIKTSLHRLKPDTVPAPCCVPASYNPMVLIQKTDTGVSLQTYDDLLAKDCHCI
As to the kind of experiment: cell-based or functional assay.

The target in the next assay is T9, Cyno GDF15 Fc (cyno, UniProt G7PWZ3 193-308).
T9 construct: also called cyno GDF15-Fc fusion
T9 sequence: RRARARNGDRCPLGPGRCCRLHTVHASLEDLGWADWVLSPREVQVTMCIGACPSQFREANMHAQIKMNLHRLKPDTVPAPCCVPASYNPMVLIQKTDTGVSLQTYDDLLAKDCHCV
As to the kind of experiment: Octet BLI, IgG on AHC tip, avid. Here is the method:
(§1) Briefly, ForteBio affinity measurements were performed by loading IgGs on-line onto AHC sensors. Sensors were equilibrated off-line in assay buffer for 30 min and then monitored on-line for 60 seconds for baseline establishment. Sensors with loaded IgGs were exposed to 100 nM antigen for 3 minutes, and afterwards were transferred to assay buffer for 3 min for off-rate measurement. All kinetics were analyzed using the 1:1 binding model.

The next assay addresses T10, Rat GDF-15 Fc (rat, UniProt Q9Z0J6 189-303, limits assumed).
T10 sequence (looked up): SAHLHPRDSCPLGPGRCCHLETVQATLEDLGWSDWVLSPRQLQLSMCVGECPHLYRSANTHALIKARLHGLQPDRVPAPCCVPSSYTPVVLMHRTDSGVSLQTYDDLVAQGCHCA
Kind of assay: Octet BLI, IgG on AHC tip, avid. Here is the method:
as §1

The target in a further assay is T11, Mouse GDF15 Fc (mouse, UniProt Q9Z0J7 189-303, limits assumed).
T11 construct: also called mouse GDF15Fc fusion
T11 sequence (looked up): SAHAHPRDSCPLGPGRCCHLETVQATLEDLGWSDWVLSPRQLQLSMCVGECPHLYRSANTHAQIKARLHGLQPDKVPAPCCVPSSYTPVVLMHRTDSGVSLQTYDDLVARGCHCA
Kind of assay: Octet BLI, IgG on AHC tip, avid. The method, then: as §1

B1: Clone E IgG (antibody, V domains shown)
VH: QVQLVQSGAEVKKPGASVKVSCKASGYTFTSYGINWVRQAPGQGLEWMGWITAYSGDTNYAQKLQGRVTMTTDTSTSTAYMELRSLRSDDTAVYYCARGPGQYADVDVWGQGTMVTVSS
VL: DIQMTQSPSSVSASVGDRVTITCRASQGISSWLAWYQQKPGKAPKLLIYAASSLQSGVPSRFSGSGSGTDFTLTISSLQPEDFATYYCQQANSFPITFGGGTKVEIKR
notes: IgG format
Turning to B1, the binding result with Human BMP9, in the assay with GDF8, with GDF11, with Human Activin A Fc, in the assay with GDNF and with Human BMP10 was “no binding (tested: 100 nM)” each time. For the same molecule, the binding result with GDF10 and with Human Activin B was “no binding (tested: 100 nM)” throughout. For the same molecule, the “GDF15 - GFRAL RET pERK IC50 (pM)” value with GDF15 is 35 pM. Further, the “GDF15 - GFRAL-RET Luciferase IC50 (pM)” value with GDF15 came out at 190 pM. The Kd (usually the free concentration of one partner at which half of the binding sites on the other are occupied at equilibrium, for simple one-to-one binding) with Cyno GDF15 Fc was found to be 0.178 nM; in the assay with Rat GDF-15 Fc it was 0.451 nM; with Mouse GDF15 Fc, 0.194 nM.

B2: Clone O IgG (antibody, V domains shown)
VH: QVQLVQSGAEVKKPGATVKVSCKASGYTFDSLGMSWVRQAPGQGLEWMGYISTYSGDTVYAQKLQGRVTMTTDTSTSTAYMELRSLRSDDTAVYYCARESGQQVSALDPWGQGTLVTVSS
VL: DIQMTQSPSSVSASVGDRVTITCRASQGISRWLAWYQQKPGKAPKLLIYAASSLQSGVPSRFSGSGSGTDFTLTISSLQPEDFATYYCQQGASFPLTFGGGTKVEIKR
notes: IgG format
For B2, the binding result with Human BMP9, with GDF8, with GDF11, with Human Activin A Fc, in the assay with GDNF and with Human BMP10 was “no binding (tested: 100 nM)” each time. Further, the binding result with Human Activin B is “no binding (tested: 100 nM)”. For the same molecule, the Kd with GDF10 was 26.7 nM. Moreover, the “GDF15 - GFRAL-RET Luciferase IC50 (pM)” value in the assay with GDF15 came out at 150 pM.

B3: Clone I IgG (antibody, V domains shown)
VH: QVQLVQSGAEVKKPGASVKVSCKASGYTFTDEGINWVRQAPGQGLEWMGWITAYSGDTVYAQKLQGRVTMTTDTSTSTAYMELRSLRSDDTAVYYCARGPGQYADVDVWGQGTMVTVSS
VL: DIQMTQSPSSVSASVGDRVTITCRASQGISSWLAWYQQKPGKAPKLLIYAASSLQSGVPSRFSGSGSGTDFTLTISSLQPEDFATYYCQQANSFPITFGGGTKVEIKR
notes: IgG format
Turning to B3, the binding result with Human BMP9, in the assay with GDF8, in the assay with GDF11, with Human Activin A Fc, with Human BMP10 and in the assay with GDF10 was “no binding (tested: 100 nM)” throughout. The binding result in the assay with Human Activin B was “no binding (tested: 100 nM)”. The “GDF15 - GFRAL RET pERK IC50 (pM)” value in the assay with GDF15 was 34.5 pM. In addition, the “GDF15 - GFRAL-RET Luciferase IC50 (pM)” value in the assay with GDF15 was 79.3 pM. The Kd with Cyno GDF15 Fc came out at 3.04 nM; with Rat GDF-15 Fc, 1.18 nM; in the assay with Mouse GDF15 Fc, 0.152 nM.

B4: Clone M IgG (antibody, V domains shown)
VH: QVQLVQSGAEVKKPGASVKVSCKASGYTFDSYGINWVRQAPGQGLEWMGWISAYSGDTAYAQELQGRVTMTTDTSTSTAYMELRSLRSDDTAVYYCVRDTQYGGSPYWGQGTLVTVSS
VL: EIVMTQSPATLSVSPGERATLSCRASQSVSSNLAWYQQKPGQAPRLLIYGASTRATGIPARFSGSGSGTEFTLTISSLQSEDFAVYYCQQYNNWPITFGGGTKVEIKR
notes: IgG format
B4: the binding result with Human BMP9, with GDF8, in the assay with GDF11, with Human Activin A Fc, with Human BMP10 and in the assay with GDF10 was “no binding (tested: 100 nM)” in each case. In the assay with Human Activin B, the binding result is reported as “no binding (tested: 100 nM)”. The molecule also yielded a Kd with GDNF of 31.4 nM. The “GDF15 - GFRAL RET pERK IC50 (pM)” value in the assay with GDF15 worked out at 88.7 pM.
